This note sets out measurements from patent US7871610B2, “Antibodies to Tie1 ectodomain” (Dyax Corp., priority 2003, dated 2011).

The target in this experiment is Tie1 (Homo sapiens, UniProt P35590). The experiment can be described thus: Tie1 phosphorylation assay in transfected COS1 cells. It counts as cell-based. The note with it: COS1 cells with V5-tagged full length Tie1, serum starved, E3 IgG 200 ng/ml. How it is done:
COS1 cells were transfected with pcDNA3-Tie1-V5. After 24 h of transfection, the cells were serum starved for 8 h and then treated with E3 IgG. For the Tie1 phosphorylation assay, HDMVECs were cultured on 10 cm dishes to near confluence, starved (8-16 h) in serum free medium and stimulated as indicated. After the stimulations, the cells were lysed in lysis buffer (RIPA-DOC: 50 mM Tris-HCl pH 8.0, 150 mM NaCl, 1% Triton-X-100, 0.1% SDS, 0.5% DOC, 10 mM EDTA, supplemented with aprotinin, leupeptin, PMSF and sodium vanadate). Clarified lysates from transfected COS1 cells or HDMVECs were immunoprecipitated with anti-V5 or anti-Tie1 B9, respectively. Proteins were separated by SDS-PAGE, transferred to nitrocellulose and immunoblotted using the anti-phosphotyrosine and anti-Tie1 (R&D systems) antibodies.
To test if the E3 IgG binding to the extracellular region of Tie1 induces autophosphorylation of Tie1, the Tie1 receptor phosphorylation level in response to E3 IgG treatment was studied in transiently transfected COS1 cells and human primary endothelial cells. COS1 cells were transfected with an expression vector containing a V5-tagged full length Tie1 cDNA, and, after serum starvation, the cells were treated with E3 IgG (200 ng/ml). […]

Sequence of Tie1 (P35590 22-1138): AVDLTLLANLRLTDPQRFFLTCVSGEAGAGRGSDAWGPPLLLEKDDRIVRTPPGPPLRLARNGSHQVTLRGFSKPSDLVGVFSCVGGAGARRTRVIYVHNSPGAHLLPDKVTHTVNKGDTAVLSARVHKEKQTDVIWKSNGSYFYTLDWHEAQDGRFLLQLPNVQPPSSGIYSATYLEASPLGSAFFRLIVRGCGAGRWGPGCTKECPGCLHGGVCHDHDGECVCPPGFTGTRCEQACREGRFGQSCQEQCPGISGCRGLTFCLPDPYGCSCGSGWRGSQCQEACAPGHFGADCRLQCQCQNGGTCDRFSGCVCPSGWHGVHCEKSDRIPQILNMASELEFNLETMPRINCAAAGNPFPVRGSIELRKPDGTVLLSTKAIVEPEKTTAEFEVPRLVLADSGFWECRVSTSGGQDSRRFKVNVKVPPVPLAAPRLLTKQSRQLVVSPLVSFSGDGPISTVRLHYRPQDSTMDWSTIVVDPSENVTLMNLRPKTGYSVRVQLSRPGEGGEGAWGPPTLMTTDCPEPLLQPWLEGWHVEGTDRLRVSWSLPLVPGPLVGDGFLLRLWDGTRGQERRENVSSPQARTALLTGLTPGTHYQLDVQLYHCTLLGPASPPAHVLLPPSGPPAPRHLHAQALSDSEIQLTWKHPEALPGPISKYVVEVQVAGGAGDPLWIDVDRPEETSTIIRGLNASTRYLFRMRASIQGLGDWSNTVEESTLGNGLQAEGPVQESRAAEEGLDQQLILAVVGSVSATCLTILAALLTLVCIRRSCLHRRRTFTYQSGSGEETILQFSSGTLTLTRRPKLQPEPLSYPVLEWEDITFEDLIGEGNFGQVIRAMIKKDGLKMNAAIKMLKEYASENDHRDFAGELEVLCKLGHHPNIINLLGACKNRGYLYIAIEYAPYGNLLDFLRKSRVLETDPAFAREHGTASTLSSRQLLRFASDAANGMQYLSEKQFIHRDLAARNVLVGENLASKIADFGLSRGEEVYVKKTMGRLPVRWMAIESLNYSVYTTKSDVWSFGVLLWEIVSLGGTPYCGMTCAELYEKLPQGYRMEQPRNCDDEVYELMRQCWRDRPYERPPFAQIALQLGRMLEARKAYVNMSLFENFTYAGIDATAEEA

B1: E3: human anti-Tie1 antibody from Fab phage library; HC SEQ ID NO:114, LC SEQ ID NO:116 (antibody, V domains shown)
VH: EVQLLESGGGLVQPGGSLRLSCAASGFTFSMYGMVWVRQAPGKGLEWVSVISPSGGNTGYADSVKGRFTISRDNSKNTLYLQVNSLRAEDTAVYYCARAPRGYSYGYYYWGQGTLVTVSSASTKGPSVFPLAPSSKSTSGG
VL: DIQMTQSPLSLSASVGDRVTITCRASQGIGHYLAWYQQKPGKVPKLLIYTASTLQSGVPSRFSGSGSGTDFTLTINSLQPEDVATYYCQQFNSYPHTFGQGTRLDIK
modifications: Synthetically generated peptide
For B1, the “time of stimulation after which Tie1 is tyrosine phosphorylated” value was in the range of 10 to 30 min.
